Assay results taken from patent US20250154215A1, “PHARMACEUTICAL COMPOSITION FOR TREATING COLITIS OR COLORECTAL CANCER COMPRISING COLON-TARGETED S100A8/A9-DERIVED SPECIFIC PEPTIDE” (Industry-University Cooperation Foundation Hanyang …, priority 2023, published 2025).

Columns and labels:
[1] = set-up: species or system mice; conditions: mouse, in vivo, ip, 1 mg/kg
Experimental: Female C57BL/6 mice with body weight of 16 to 18 g were used for PK studies. S100A8/A9 peptide or rCT-S100A8/A9 protein (1 mg/kg) was administered to the mice by intraperitoneal injection. Whole blood samples ([…]) were collected serially from the orbital vein at 0.17, 0.5, 1, 2, 4, and 6 hours after drug administration. Blood samples were centrifuged at 12,000 rpm for five minutes at 4° C., and plasma was collected. To a 10 μL plasma sample, 20 μL of 0.1% formic acid in acetonitrile was added along with amlodipine, which was an internal standard (IS), at a concentration of 500 ng/mL, and the resulting mixture was vortexed. Samples were then centrifuged at 13,200 rpm for five minutes, and 10 μL aliquots were injected for LC-MS/MS analysis.

[2] = Colon targeting of Cy5.5-conjugated protein in DSS-induced acute colitis mice (FACS); conditions: mouse, in vivo, ip
Experimental: FIGS. 6A-6D show the effect of rCT-S100A8/A9 peptide on colon targeting. […] Mice were exposed to 3% DSS for six days and evaluated on day 6 (left). For IB with αITGA6, αITGB1, or αActin, multiple organ harvests were used and ITGA6+ or ITGB1+ cell numbers were analyzed through FACS. […] Intraperitoneal administration of rCT-S100A8/9 conjugated with Cy5.5 for one hour and colon harvest. Colon harvests were used for IB including αITGA6, αITGB1, or αActin and ITGA6+ or ITGB1+ cell numbers were analyzed through FACS. […] Mice were treated with 3% DSS for six days and administered 1, 2, or 3 doses of Texas Red conjugated with rCT-S100A8/9. Colons were harvested in a time-dependent manner and analyzed for Texas Red+ cell numbers through FACS. Data is representative of three independent experiments with similar results. Data is shown as the mean±SD of three experiments;
Fourth, to further investigate the physiological significance of rCT-S100A8/A9 in inflammatory colitis, a DSS-induced colitis mouse model was used (FIG. 6). […] Next, to evaluate the specificity of rCT-S100A8/A9, ITGA6- or ITGB1-knockdown mice were generated by sh-lentivirus transduction. […] Finally, the pharmacodynamics of rCT-S100A8/A9 were evaluated, and according to the FACS analysis, 50% of the rCT-S100A8/A9 was retained in the colon when administered for three consecutive days to the mice with DSS-induced acute colitis (FIG. 6D).

[3] = assay type: in vitro ADME; conditions: human, 0.5 h
Experimental: Human plasma of each culture tube treated with S100A8/A9 peptide (10 μM) or rCT-S100A8/A9 protein (10 μg/mL) was incubated at 37° C. for 0, 30, and 120 minutes, respectively. At the designated time, an acetonitrile internal standard solution of chlorpropamide was added to each culture tube, and the resulting mixture was shaken with a vortex mixer for five minutes and centrifuged for additional five minutes (14,000 rpm, 4° C.). The supernatant was then injected into an LC-MS/MS system to analyze the plasma stability of the tested substances.

[4] = set-up: species or system BALB/c mice; conditions: mouse, in vivo
Experimental: FIGS. 12A-12E show biological effects of rCT-S100A8/9 in tumor-bearing mice. […] Each vertical bar represents the mean±SD of cell viability at each dose. Data is shown as the mean±SD of six experiments. […] HCT116 cells were injected subcutaneously into the flanks of BALB/c mice as described in the Methods section. Mice were administered one or two intraperitoneal doses and sacrificed on day 5. Their expression was assessed by IB in various organs of mice. WCLs were used for IB including αActin. Data is representative of four independent experiments with similar results. […] E-cadherin, N-cadherin, and β-catenin staining of the tumors. […] Mice were immunized by each route (i.v. or i.p.) every 3 days, and blood was collected on day 40. IgG levels specific for rCT-S100A8/9 or ovalbumin (OVA) were measured using ELISA. Values represent the mean optical density (OD) and standard deviation at 450 nm. Each group included five mice. […] Serum cytokine levels were measured 30 days after administration. […]
A major concern with protein therapeutics derived from endogenous human proteins is that they may induce strong anti-therapeutic antibody responses and stimulate undesirable immune responses. […] Therefore, the immunogenicity of rCT-S100A8/A9 was assessed by measuring the production of anti-rCT-S100A8/A9 antibodies in mice immunized with the peptide according to the present invention. […]

[5] = assay type: in vitro ADME; conditions: human, microsomes, 0.5 h
Experimental: 0.1 M phosphate buffer (pH 7.4) and S100A8/A9 peptide ([…]) or rCT-S100A8/A9 protein (10 μg/mL) were added to human liver microsomes (0.5 mg/mL). After incubation at 37° C. for five minutes, the NADPH-generating system solution was also added and incubated again at 37° C. for 30 minutes. To terminate the reaction, acetonitrile containing an internal standard (clopramide) was added, and the resulting mixture was centrifuged for five minutes (14,000 rpm, 4° C.). The supernatant was then injected into an LC-MS/MS system to analyze the microsomal stability of the tested substances.

[6] = DSS-induced acute colitis mouse model; assay type: in vivo, mice; conditions: treatment for three consecutive days

B1: TWYKIAFQRNRKTWYKIAFQRNRKTWYKIAFQRNRKTWYKIAFQRNRKTWYKIAFQRNRKGGFLVIKGGAHKSHKGGITIITFGGGHHGGFLVIKGGAHKSHKGGITIITFGGGHHGGFLVIKGGAHKSHKGGITIITFGGGHHGG (protein)
chain: TWYKIAFQRNRKTWYKIAFQRNRKTWYKIAFQRNRKTWYKIAFQRNRKTWYKIAFQRNRKGGFLVIKGGAHKSHKGGITIITFGGGHHGGFLVIKGGAHKSHKGGITIITFGGGHHGGFLVIKGGAHKSHKGGITIITFGGGHHGG
modifications: N-terminal 6xHis tag
- AUC values and half-life [1]: well maintained in the blood at effective drug concentrations
- tissue targeting [2]: specifically targeted the colon tissues of the mice with acute colitis
- plasma stability, remaining [3]: 100%
- production of specific anti-rCT-S100A8/A9 antibodies [4]: negligible compared to that induced by ovalbumin
- microsomal stability, remaining [5]: 92%
- survival rate by treatment frequency [6]: highest survival rate
